From patent US20070032637A1

Target: EGFR on A431 cells (human squamous cell carcinoma cells) (human) (UniProt P00533)
Test: inhibition of the binding of Eu-EGF (10 nM) to A431 cells, time-resolved fluorescence; blocked ligand: Eu-EGF

## anti-EGFR monoclonal antibody Ab-3 (Oncogene)
  IC50 (read off the curve): 0.6 µg/mL
